Test results from patent US20160208004A1 (published 2016).
Positions count from the first letter of the chain named.

T1: IL-17RB.Fc (extracellular domain of human IL-17RB fused to the Fc region of human IgG) (human, UniProt Q9NRM6 18-292)
T1 construct: extracellular domain; also called HuIL-17RB: Fc; IL-17RB Fe; not shown: Fc region of human IgG1
T1 sequence (looked up): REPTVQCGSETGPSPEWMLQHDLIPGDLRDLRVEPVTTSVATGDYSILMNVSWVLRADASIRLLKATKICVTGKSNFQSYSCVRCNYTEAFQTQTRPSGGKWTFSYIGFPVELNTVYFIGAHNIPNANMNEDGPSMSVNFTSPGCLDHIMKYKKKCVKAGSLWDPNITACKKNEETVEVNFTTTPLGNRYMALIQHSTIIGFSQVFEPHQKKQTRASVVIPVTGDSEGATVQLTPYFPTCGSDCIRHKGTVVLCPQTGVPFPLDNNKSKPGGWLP

B1: 1.185.1 (antibody, V domains shown)
VH: QVQLVESGGGVVQPGRSLRLSCAASGINFSSYGMHWVRQAPGKGLEWVAVIWYDGSNKHYADSVKGRFTISRDNSKNTLYLQMNSLRAEDTAVYYCARDTGVYWGQGTLVTVSS
VL: not shown
B2: 3.1545.1 (antibody, V domains shown)
VH: EVQLVESGGGSVQPGGSLRLSCAASGFTFSSYSMNWVRQAPGKGLEWVSIISSRSSIIHYADSVKGRFTISRDNAKNSLYLQMNSLRDEDTAVYYCARPKVGGGMDVWGQGTTVTVSS
VL: DIQMTQSPSSLSASVGDRVTITCRASQGISNYLAWYQQKPGKFPELLIYAASTLQSGVPSRFSGSGSGTDFTLTISSLQPEDVATYYCQKYNRAPFTFGPGTKVDIK
B3: 2.67.1 (antibody, V domains shown)
VH: QVQLVQSGAEVKKPGASVKVSCKASGYTLTRYGISWVRQAPGQGLEWMGWISAYNGNTNYAQKLQGRVTMTTDTSTSTAYMELRSLRSDDTAVYYCARRDYDILTGYYNGFDPWGQGTLVTVSS
VL: DIQMTQSPSSLSASVGDRVTITCRASQGIRNDLGWYQQKPGKAPKRLIYAASSLQSGVPSRFSGSGSGTEFTLTISSLQPEDFATYYCLQHKSYPLTFGGGTKVEIK
B4: 2.98.1 (antibody, V domains shown)
VH: B3 VH
VL: B3 VL
B5: 2.46.1 (antibody, V domains shown)
VH: B3 VH with Y27N, L29F, R31G, K63N
VL: B3 VL
B6: 2.225.1 (antibody, V domains shown)
VH: B3 VH with A9V
VL: B3 VL
B7: 4.357.1 (antibody, V domains shown)
VH: QVQLVQSGAEVKKPGASVKVSCKASGYTLTSYGISWVRQAPGQGLEWMGWISTYKGNTNYAQKLQGRVTMTTDTSTSTAYMELRSLRSDDTAVYYCARKQLVFDYWGQGTLVTVSS
VL: EIVMTQSPATLSVSPGERATLSCRASQSISSSLAWYQQKPGQAPRLLIYGASTRATGIPARFSGSGSGTEFTLTISSLQSENFAVYYCQQYDNWPLTFGGGTKVEIK
B8: 4.393.1 (antibody, V domains shown)
VH: B7 VH with L29F, T53A, K55N, N59K, A79V
VL: B7 VL with S31T, A51T, N82D, Y87F, N93I
B9: Human IL-17RD.HIS (receptor, UniProt Q8NFM7 27-299, looked up)
chain: AGGSGRARGADTCGWRGVGPASRNSGLYNITFKYDNCTTYLNPVGKHVIADAQNITISQYACHDQVAVTILWSPGALGIEFLKGFRVILEELKSEGRQCQQLILKDPKQLNSSFKRTGMESQPFLNMKFETDYFVKVVPFPSIKNESNYHPFFFRTRACDLLLQPDNLACKPFWKPRNLNISQHGSDMQVSFDHAPHNFGFRFFYLHYKLKHEGPFKRKTCKQEQTTETTSCLLQNVSPGDYIIELVDDTNTTRKVMHYALKPVHSPWAGPIR
notes: R&D Systems product; not shown: HIS tag

Target: human IL-17RA (human, UniProt Q96F46 33-866)
Test: cell-based or functional assay

Row | % Inhib. of IL-5 production, TSLP treated human PBMC + IL-2 + IL-25, Expt. 1 [%] | % Inhib. of IL-5 production, TSLP treated human PBMC + IL-2 + IL-25, Expt. 2 [%] | % Inhib. of IL-5 production, TSLP treated human PBMC + IL-2 + IL-25, Expt. 3 [%] | Binder
1 | 0 | 41 | 9 | B1
2 | 0 | 43 | 0 | B2
3 | 0 | 13 | 3 | B3
4 | 0 | 79 | 0 | B4
5 | 0 | 6 | 0 | B5
6 | 0 | – | 0 | B6
7 | 0 | – | 11 | B7
8 | 28 | 72 | 45 | B8

Target: T1, IL-17RB.Fc (extracellular domain of …)
Test: co-immunoprecipitation on Protein G beads, Western blot

Row | Binder | binding result
9 | B9 | no binding (tested: 2 micrograms of each protein)

Target: T2, IL-17RA.Fc (extracellular domain of human IL-17RA fused to the Fc region of human IgG) (human, UniProt Q96F46 33-320)
T2 construct: extracellular domain; also called IL-17RA Fe; not shown: Fc region of human IgG1
Test: as above

Row | Binder | binding result
10 | B9 | no binding (tested: 2 micrograms of each protein)
